Patent publication US20060147922A1 (published 2006)
Values belong to the binder of their own block, whether it stands above or below them.

Tests used:
[1] = biological target: T1, GAL4 DBD-EDDM fusion (full length EDD C2768A mutant bait) (yeast; human, UniProt O95071 1-2799); assay: yeast two-hybrid screen; truncated clone
T1 construct: Bait for the yeast two-hybrid screen of a human placenta cDNA library; also called full length EDDM (C2768A mutant) bait
From the text: (§1) The cDNAs for full length EDD mutant and carboxy domain mutants (EDDM and EDD5M) were screened against a human placenta cDNA library in the pACT2 vector by the yeast two-hybrid method (Matchmaker 2, Clontech, Palo Alto, Calif., USA). Stable transformants of Saccharomyces cerevisiae strain Y190 expressing EDD fusion protein were transformed with the library using the lithium acetate method and 2-3×10⁶ primary transformants selected on his-leu-trp-plates. Following a second round of selection on the same medium, colonies were assayed for β.galactosidase activity using a filter-based assay. Interacting plasmids that were positive for β.galactosidase only in the presence of the EDD bait plasmids were transformed into E. coli DH5α cells for further analysis. Manual sequencing was carried out using ³³P end-labelled primer in conjunction with the fmol Cycle sequencing kit (Promega Corp., Madison, Wis., USA). Sequences were analysed by Blast searches of the Genbank and EMBL databases and predicted proteins analysed for motifs using the ISREC Profile Scan Server (www.isrec.isb-sib.ch).

[2] = biological target: T2, EDD protein, full length (aa 1-2799) (human, UniProt O95071 1-2799, EDD is phosphorylated in cells; the residue involved has not yet been identified); assay: GST pull-down from MCF-7 nuclear extracts, EDD western blot
T2 construct: also called in vitro translated 35S-labelled EDD; endogenous EDD
Protocol: For GST fusion protein pull-down of endogenous or recombinant EDD from cell lysates, 0.5 to 1 mg total protein was incubated with 5 μg GST or GST fusion protein bound to glutathione beads for 1-2 h at 4° C. Beads were washed extensively in 1% Triton X-100 lysis buffer and bound proteins resolved by SDS-PAGE and detected by immunoblotting with EDD antisera (Callaghan et al, Oncogene 17, 3479-3491, 1998). For immunoprecipitation, 10 μl importin α5 antisera (Peter Palese, Mount Sinai School of Medicine) was incubated with 0.5 to 1 mg cell lysate (4° C. for 1 h). Antibody conjugates were captured on protein A sepharose beads (4° C. for 1 h) and washed extensively in lysis buffer. Bound proteins were resolved by SDS-PAGE followed by immunoblotting with EDD antisera.
(§2) To determine the requirement for the chk2 FHA domain in this interaction, the binding between EDD and GSTchk2-N and two mutants was assessed. The R117A mutant contains a substitution within the FHA domain and involves a residue directly required for phosphothreonine binding.

[3] = biological target: T3, EDDF5, central plus C-terminal domains of EDD (aa 889-2799) (human, UniProt O95071 889-2799, binding suggested to be mediated by a phosphorylated threonine residue; residue not identified); assay: GST pull-down of IVT 35S-EDDF5
T3 construct: In vitro translated, 35S-labelled; also called carboxyl two-thirds of EDD
Protocol: as §2

[4] = biological target: T4, EDDM, full length EDD with Cys2768 to Ala mutation (human, UniProt O95071 1-2799); assay: anti-FLAG M2 immunoprecipitation from HEK 293 cells overexpressing mutant EDD, EDD western blot
T4 construct: Stably overexpressed in HEK 293 cells (FLAG-CIB co-immunoprecipitation) or transfected for reporter assays; also called mutant EDD; ligase-defective EDD mutant
Protocol: Left, HEK 293 cells overexpressing mutant EDD were transfected with a plasmid encoding Flag-tagged CIB or empty vector (vec). Extracts from these cells were subjected to immunoprecipitation using anti-FLAG Ab M2. Right, nuclear extracts prepared from MCF-7 cells following treatment with DNA damage agents phleomycin (Phleo) or hydroxyurea (HU) were incubated with either GST or GST-CIB fusion protein bound to glutathione-Sepharose beads. Bound proteins from both procedures were analysed by SDS-PAGE and western blotted for EDD and amounts bound are indicated as percentages relative to input.
Stable HEK 293 cells overexpressing EDDM were transfected with pCMVTag2C-CIB or empty vector using Fugene 6 reagent (Roche) for 24 h. Following 6 h incubation in the presence of MG132, cells were harvested and lysates prepared and one mg total protein incubated with anti-FLAG antibody M2 coupled to Sepharose (Sigma Chemical Co., St Louis, USA) for 2 h at 4° C. Beads were recovered by centrifugation and washed extensively in lysis buffer. Western blotting for EDD has been described (Callaghan et al, Oncogene 17, 3479-3491, 1998).

[5] = biological target: T1, GAL4 DBD-EDDM fusion (full length EDD …); assay: yeast two-hybrid screen
From the text: as §1, with “Manual sequencing was carried out using ³³P end-labelled primer in conjunction with the fmol Cycle sequencing kit (Promega Corp., Madison, Wis., USA).” left out
Further yeast two-hybrid screening was aimed at identifying other proteins involved in the ubiquitinylation or coactivation functions of EDD. […] The interaction between CIB and full length EDD initially detected in the yeast two-hybrid system (FIG. 10A) was confirmed by pull-down of in vitro translated EDD proteins with GST-CIB (FIG. 10B). […]

[6] = biological target: T5, EDDF2, central domain of EDD (aa 889-1877) (human, UniProt O95071 889-1877); assay: GST-importin α5 pull-down of IVT 35S-EDD fragments
T5 construct: In vitro translated, 35S-labelled; also called central third; central region of EDD
T5 sequence: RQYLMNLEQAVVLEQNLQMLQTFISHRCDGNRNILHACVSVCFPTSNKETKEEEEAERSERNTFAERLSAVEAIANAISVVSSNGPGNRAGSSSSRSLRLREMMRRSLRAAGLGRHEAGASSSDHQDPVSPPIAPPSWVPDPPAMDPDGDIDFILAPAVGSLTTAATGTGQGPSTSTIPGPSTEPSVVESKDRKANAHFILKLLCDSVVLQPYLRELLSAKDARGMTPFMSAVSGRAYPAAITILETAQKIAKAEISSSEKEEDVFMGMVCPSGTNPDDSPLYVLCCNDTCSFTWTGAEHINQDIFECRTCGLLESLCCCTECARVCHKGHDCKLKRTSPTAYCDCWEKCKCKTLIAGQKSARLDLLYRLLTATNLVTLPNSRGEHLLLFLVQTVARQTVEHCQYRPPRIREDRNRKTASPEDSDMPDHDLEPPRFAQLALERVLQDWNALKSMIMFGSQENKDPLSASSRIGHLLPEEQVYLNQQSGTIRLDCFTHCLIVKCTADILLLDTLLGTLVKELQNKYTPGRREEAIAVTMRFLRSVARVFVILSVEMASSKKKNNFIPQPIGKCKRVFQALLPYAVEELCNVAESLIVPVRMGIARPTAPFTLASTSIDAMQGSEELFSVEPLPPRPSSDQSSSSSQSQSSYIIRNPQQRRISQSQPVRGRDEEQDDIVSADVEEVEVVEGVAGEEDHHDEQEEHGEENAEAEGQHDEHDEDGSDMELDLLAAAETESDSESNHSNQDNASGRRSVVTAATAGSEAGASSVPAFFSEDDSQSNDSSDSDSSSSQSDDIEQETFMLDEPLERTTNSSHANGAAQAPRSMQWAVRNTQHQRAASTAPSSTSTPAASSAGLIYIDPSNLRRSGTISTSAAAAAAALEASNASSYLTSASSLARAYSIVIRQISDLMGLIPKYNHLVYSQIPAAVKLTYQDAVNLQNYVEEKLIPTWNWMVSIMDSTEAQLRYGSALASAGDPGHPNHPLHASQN

[7] = biological target: T6, EDDF3, carboxy domain of EDD (aa 1877-2799) (human, UniProt O95071 1877-2799); assay: GST-importin α5 pull-down of IVT 35S-EDD fragments
T6 construct: In vitro translated, 35S-labelled; also called carboxy third; carboxy terminal region of EDD
T6 sequence: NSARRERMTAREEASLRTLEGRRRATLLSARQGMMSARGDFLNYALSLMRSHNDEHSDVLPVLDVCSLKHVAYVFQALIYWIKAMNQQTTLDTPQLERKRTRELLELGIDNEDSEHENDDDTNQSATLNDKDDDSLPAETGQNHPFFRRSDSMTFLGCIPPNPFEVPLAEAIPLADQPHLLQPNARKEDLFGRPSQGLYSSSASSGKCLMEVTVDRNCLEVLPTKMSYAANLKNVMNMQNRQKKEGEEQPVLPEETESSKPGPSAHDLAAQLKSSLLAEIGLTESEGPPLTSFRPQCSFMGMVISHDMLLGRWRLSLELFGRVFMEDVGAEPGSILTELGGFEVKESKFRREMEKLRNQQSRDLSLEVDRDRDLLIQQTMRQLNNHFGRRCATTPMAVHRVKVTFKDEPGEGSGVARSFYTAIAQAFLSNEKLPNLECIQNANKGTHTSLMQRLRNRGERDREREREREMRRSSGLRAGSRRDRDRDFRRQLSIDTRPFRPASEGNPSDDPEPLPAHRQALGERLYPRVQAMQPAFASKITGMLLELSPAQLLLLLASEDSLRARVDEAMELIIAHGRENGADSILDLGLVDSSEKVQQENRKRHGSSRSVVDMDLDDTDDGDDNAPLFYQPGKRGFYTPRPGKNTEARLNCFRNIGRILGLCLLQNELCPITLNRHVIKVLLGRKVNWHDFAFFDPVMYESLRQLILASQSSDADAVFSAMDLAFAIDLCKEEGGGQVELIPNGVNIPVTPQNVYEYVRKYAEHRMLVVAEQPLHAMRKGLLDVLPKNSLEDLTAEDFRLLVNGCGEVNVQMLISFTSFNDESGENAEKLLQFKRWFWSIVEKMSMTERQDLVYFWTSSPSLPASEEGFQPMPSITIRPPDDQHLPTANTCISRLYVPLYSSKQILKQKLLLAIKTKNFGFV

EDDF1c (EDD aa 1-419) = biological target: T7, EDDF1c (EDD aa 1-419) (human, UniProt O95071 1-419); assay: GST-importin α5 pull-down of IVT N-terminal EDD derivatives
T7 construct: In vitro translated, 35S-labelled; Contains neither N-terminal NLS
T7 sequence: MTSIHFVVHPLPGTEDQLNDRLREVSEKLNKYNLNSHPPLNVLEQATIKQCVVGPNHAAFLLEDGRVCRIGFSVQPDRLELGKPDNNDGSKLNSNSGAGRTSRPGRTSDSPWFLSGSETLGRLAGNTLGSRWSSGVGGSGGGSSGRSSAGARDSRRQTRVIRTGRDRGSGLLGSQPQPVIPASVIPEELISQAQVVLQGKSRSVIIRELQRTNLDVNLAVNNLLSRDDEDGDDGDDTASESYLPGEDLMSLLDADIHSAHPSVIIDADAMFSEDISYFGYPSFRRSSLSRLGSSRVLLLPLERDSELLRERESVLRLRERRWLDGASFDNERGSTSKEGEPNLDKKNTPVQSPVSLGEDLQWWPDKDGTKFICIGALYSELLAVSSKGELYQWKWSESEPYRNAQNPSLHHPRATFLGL

binding result [1]: binds
B1: GAL4 AD-importin α5 fusion, aa 229-538 (Impα-C) (other, not shown: large carriers)
chain: TRNAVWALSNLCRGKSPPPEFAKVSPCLNVLSWLLFVSDTDVLADACWALSYLSDGPNDKIQAVIDAGVCRRLVELLMHNDYKVVSPALRAVGNIVTGDDIQTQVILNCSALQSLLHLLSSPKESIKKEACWTISNITAGNRAQIQTVIDANIFPALISILQTAEFRTRKEAAWAITNATSGGSAEQIKYLVELGCIKPLCDLLTVMDSKIVQVALNGLENILRLGEQEAKRNGTGINPYCALIEEAYGLDKIEFLQSHENQEIYQKAFDLIEHYFGTEDEDSSIAPQVDLNQQQYIFQQCEAPMEGFQL
notes: Yeast two-hybrid prey clone; also called amino-truncated importin α5; truncated importin α5 clone

binding result [2]: no binding | binding result [3]: no binding
B2: GSTchk2-N derivative containing an R117A substitution (other)
chain: MSRESDVEAQQSHGSSACSQPHGSVTQSQGSSSQSQGISSSSTSTMPNSSQSSHSSSGTLSSLETVSTQELYSIPEDQEPEDQEPEEPTPAPWARLWALQDGFANLECVNDNYWFGADKSCEYCFDEPLLKRTDKYRTYSKKHFRIFREVGPKNSYIAYIEDHSGNGTFVNTELVGKGKRRPLNNNSEIALSLSRNKVFVFFDLTVDDQSVYPKALRDEYIMSKT
notes: also called GSTchk2-N R117A; R117A mutant; not shown: GST fusion partner at the N end and any vector linker

binding result [4]: binds
B3: FLAG-tagged CIB (full-length CIB in pCMVTag2C) (other, not shown: small tags and cut ends)
chain: MGGSGSRLSKELLAEYQDLTFLTKQEILLAHRRFCELLPQEQRTVESSLRAQVPFEQILSLPELKANPFKERICRVFSTSPAKDSLSFEDFLDLLSVFSDTATPDIKSHYAFRIFDFDDDGTLNREDLSRLVNCLTGEGEDTRLSASEMKQLIDNILEESDIDRDGTINLSEFQHVISRSPDFASSFKIVL
notes: Expressed in HEK 293 cells overexpressing EDDM

binding result [5]: binds
B4: GAL4 AD-CIB fusion, full length CIB/KIP (other, not shown: large carriers)
chain: B3 chain
notes: Yeast two-hybrid prey clone from a human placenta cDNA library; also called CIB/KIP full-length clones

binding result [6]: no binding | binding result [7]: no binding | binding result (EDDF1c (EDD aa 1-419)): no binding
B5: GST fused to amino acids 263-538 of human importin α5 (NPI-1) (other)
chain: LFVSDTDVLADACWALSYLSDGPNDKIQAVIDAGVCRRLVELLMHNDYKVVSPALRAVGNIVTGDDIQTQVILNCSALQSLLHLLSSPKESIKKEACWTISNITAGNRAQIQTVIDANIFPALISILQTAEFRTRKEAAWAITNATSGGSAEQIKYLVELGCIKPLCDLLTVMDSKIVQVALNGLENILRLGEQEAKRNGTGINPYCALIEEAYGLDKIEFLQSHENQEIYQKAFDLIEHYFGTEDEDSSIAPQVDLNQQQYIFQQCEAPMEGFQL
notes: also called GST-importin α5; GST-importin α; not shown: glutathione S-transferase (GST) fusion partner from a bacterial plasmid
